In paper PMC10352329:

Experiments:
Test in all cases: ITC
[1] = biological target: H2B (1–27) unmodified peptide (Homo sapiens); settings: domain or fragment; chains chain; fluorescently labeled with a His tag Labeling Kit (microscale thermophoresis only)
[2] = biological target: H4 (1–20) K5ac/K8ac peptide (Homo sapiens); settings: domain or fragment
[3] = biological target: H4 (1–20) unmodified peptide (Homo sapiens); settings: domain or fragment; chains chain; fluorescently labeled with a His tag Labeling Kit (microscale thermophoresis only)

Sequence of H2B (1–27) unmodified peptide (Homo sapiens) (main, as listed by the source): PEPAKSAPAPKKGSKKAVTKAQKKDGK

B1: human p300BRP (residues 1048–1282), wild type, Q09472 1048-1282 (protein)
chain: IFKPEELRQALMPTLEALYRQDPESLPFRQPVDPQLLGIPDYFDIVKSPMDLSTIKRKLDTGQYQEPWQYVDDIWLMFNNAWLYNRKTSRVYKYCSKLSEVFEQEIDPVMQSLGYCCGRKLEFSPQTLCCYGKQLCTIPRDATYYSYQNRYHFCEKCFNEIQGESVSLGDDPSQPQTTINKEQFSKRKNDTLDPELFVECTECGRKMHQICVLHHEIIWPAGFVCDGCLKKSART
[1]
  Kd: > 500 µM
[2]
  Kd: 240 µM
[3]
  Kd: > 500 µM
